Data reported in the RNAGym collection of RNA variant scans (doi:10.1073/pnas.2313332121).

B1: TPR t1 (parent)
chain: GACCAAUCUGCCCUCAGAGCUCGAGAACAUCUUCGGAUGCAGAGGAGGCAGGCUUCGGUGGCGCGAUAGCGCCAACGUCCUCAACCUCCAAUGCAUCCCACCACAUGAUGAUGCCUGAAGAGCCUUGGUUUUUUG

Variants of: B1
Experiment: polymerase ribozyme fitness, log enrichment relative to wild type (log ratio); higher = more active; in vitro selection for triplet polymerase activity
How it was run: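 Mutant libraries of both subunits of a heterodimeric triplet polymerase ribozyme were PCR-built, transcribed, and selected once in triplicate, with frozen incubation at −7 °C and capture of gel-excised extended constructs on streptavidin beads before RT-PCR. Illumina sequencing of input and output libraries was filtered to genotypes with ≥10 input reads and ≥1 read per output. Fitness is the logarithm of genotype enrichment over wild-type enrichment, using inverse-variance-weighted replicate averages. The logarithm is base 2.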

Variant	polymerase ribozyme fitness (log ratio)
GACCAAUCUGCCCUCAGAGCUCGAGAACAUCUUCGGAUGCAUAGGAGGCAGGUUUCGGUUGCGCGAUAGCGCCAACGUCCUCAACCUCCAAUGCAUCCCACCACAUGAUUAUGCCUGAAGAGCCUUGGUUUUUUG [G42U C53U G60U G110U]	-3.64
GACCAAUCUGCCCUCAGAGCUCGAGAACAUCUUCGGAUGCACAGGAGGCAGGCUUCGGUGGCGCGAUAGCGCCAACGUCCUCAACCUCCAAUGCAUCCCACCACAUGAUGAUGCCUCAAGAGCCUUGGUUUUUUG [G42C G117C]	-4.02
GACCAAUCUGCCCUCAGAGCUCGAGAACAUCUUCGGAUGCACAGGAGGCAGGCUUCGGUGGCGCGAUAGCGCCAACGUCCUCAACCUCCAAUACAUUCCACCACAUGAUGAUGCUUGAAGAGCCUUGGUUUUUUG [G42C G93A C97U C115U]	-5.15
GACCAAUCUGCCCUCAGAGCUCGAGAACAUCUUCGGAUGCACAGGAGGCAGGCUUCGGUGGCACGAUAGCGCCAACGUCCUCAACCUCCAAUGCAUCCCACCACAUGAUGAUGCCUGAAGAGCCUUGGUUUUUUG [G42C G63A]	-3.47
GACCAAUCUGCCCUCAGAGCUCGAGAACAUCUUCGGAUGCAUAGGAGGAAGGCUUCGGUGGCGCGAUAGCGCCAACAUCCUCAACCUCCAAUGCAUCCCACCACAUGAUGAUGCCUGAAGAGGCUUGGUUUUUUU [G42U C49A G77A C123G G135U]	-1.82
GACCAAUCUGCCCUCAGAGCUCGAGAACAUCUUCGGAUGCACAGGAGGCAGGCUUCGGUGGCGCGAUAGCGCCAACGUCCUCAACCUCCAAUGCAUCCCACCACAUGAUGAAGCCUGAAGAGCCUUGGUUUUUUG [G42C U112A]	-0.562
GACCAAUCUGCCCUCAGAGCUCGAGAACAUCUUCGGAUGCAUAGGAGGCAGGCUUCGGUGGCGCGAUAGCGCCAACGUCCUCAACCUCCAAUGCAUCCCACCACAUGAUGAUGCCUGAAGAGCCUUGGUUUUUUG [G42U]	-1.31
GACCAAUCUGCCCUCAGAGCUCGAGAACAUCUUCGGAUGCACAGGAGGCAGGCUUCGGUGGCGCGAUACCGCCAACGUCCUCAACAUCCAAUGCAUCCCACCACAUGAUGAUGCCUCAAGAGCCUUGGUUUUUUG [G42C G69C C86A G117C]	-6.61
GACCAAUCUGCCCUCAGAGCUCGAGAACAUCUUCGGAUGCAUAGGAGGCAGGCUUGGGUGGCGCGAUAGCGCUAACGUCCUCAACCUCCAAUGCAUCCCACCACAUGAUAAUGCCUGAAGAGCCUUGGUUUUUUG [G42U C56G C73U G110A]	-4.56
GACCAAUCUGCCCUCAGAGCUCGAGAACAUCUUCGGAUGCACAGGAGGCAGGCUUCGGUGGCGCGAUAGCGCCAACGUCCUCAACCUCCAAUGCAUCCCACCACAUGAUGAUGCCUGAAGAGCCUUUGUUUUUUG [G42C G127U]	-2.05
GACCAAUCUGCCCUCAGAGCUCGAGAACAUCUUCGGAUGCACAGGAGGCAGGCUUCGGUGGCGCGAUAGCGCCAACUUCCUCAACCUCCAAUGCAUCCCACCACAUGAUGAUGCCUGAAGAGCCUUGGUUUUUUG [G42C G77U]	-1.59
GACCAAUCUGCCCUCAGAGCUCGAGAACAUCUUCGGAUGCACAGGAGGCAGGCUUCGGUGGCGCGAUAGCGCCAACGUCCUCAACCUCCAAUGCAUCCCACCACAUGAUGAUGCCUGAAAAGCCUUGGUUUUUUG [G42C G120A]	-1.29
GACCAAUCUGCCCUCAGAGCUCGAGAACAUCUUCGGAUGCAUCGGAGGCAGGCUUCGGUAGCGCGAUAGCGCCAACGUCCUCAACCUCAAAUGCAUCCCACCACAUGAUGAUGCCUGAAGAGCCUUGGUUUUUUG [G42U A43C G60A C89A]	-2.03
GACCAAUCUGCCCUCAGAGCUCGAGAACAUCUUCGGAUGCACAGGAGGCAGGCUUCGGUGGCGCGAUAGCUCCAACGUCCUCAACCUCCAAUGCAUCCCACCACAUGAUGAUGCCUGAAGAGCCUUGGUUUUUUG [G42C G71U]	-2.39
GACCAAUCUGCCCUCAGAGCUCGAGAACAUCUUCGGAUGCAUAGGAGGCAGGCUUAGGUGGCGCGAUAGCGCCAACGUCCUCAACCUCCAAUGCAUCCCACCACAUGAUGAUGCCUGAAGAGCCUUGGUUUUUUG [G42U C56A]	-3.39
GACCAAUCUGCCCUCAGAGCUCGAGAACAUCUUCGGAUGCAUAGGAGGCAGGAUUCGGUGGCGCGAUAGCGCCAACGUCCUCACCUUCCUAUGCAUCCCACCACAUGAUGAUGCCUGAAGAGCCUUGGUUGCUUG [G42U C53A A84C C86U A90U U131G U132C]	-1.34
GACCAAUCUGCCCUCAGAGCUCGAGAACAUCUUCGGAUGCAUAGGAGGCAGGCUUCGGUGGCGCGAUAGCGCCCACGUCCUCAACCUCCAAUGCAUCCCACCACAUGAUGAUGCCUUAAGAGCCUUGGUUUUUUG [G42U A74C G117U]	-4.16
GACCAAUCUGCCCUCAGAGCUCGAGAACAUCUUCGGAUGCAUAGGAGGCAGGCUUCGGUGGCGCGUUAGCGCCAACGUCCUCAACCUCCAAUGCAUCCCACCACAUGAUGAUGCCUGAAGAGCCUUGGUUUUUUG [G42U A66U]	-2.91
GACCAAUCUGCCCUCAGAGCUCGAGAACAUCUUCGGAUGCAUAGGAGGCAGGCUUCGGUGGCGCGAUAGCGCCAACGUCCUCAACCUCCAAUGCGUCCCACCACAUGAUGAUGCCUGAAGAGCCUUGGUUUUUUG [G42U A95G]	-0.388
GACCAAUCUGCCCUCAGAGCUCGAGAACAUCUUCGGAUGCAUAGGAGGCAGGCUUUGGUGGCGCGAUAGCGUCAACGUCCUCAAGCUCCAAUGCAUCCCACCACAUGAUUAUGCCUGAAGAGCCUUGGUUUUUUG [G42U C56U C72U C85G G110U]	-5.53
GACCAAUCUGCCCUCAGAGCUCGAGAACAUCUUCGGAUGCAUAGGAGGCAGGUUUCGGUGGUGCGAUAGCGCCAACGUCCUCAACCUCCAAUGCAUCCCACCACAUGAUAAUGCCUGAAGAGCCUUGGUUUUUUG [G42U C53U C62U G110A]	-3.9
